Test results: the supplement of paper PMC10724198
± gives the standard deviation of the averaged measurements.

What was measured:
[1] = system: Saccharomyces cerevisiae; assay: protein stability index of tFT-peptide fusion (C-terminal peptide) (PSI (0-1 scale)); higher = more stable (slower turnover); details: genetic background: wild type; temperature: 30 C
[2] = system: Saccharomyces cerevisiae; assay: as above
Description: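 MPS profiling in S. cerevisiae of the tFT-X12 degron library: putative degron peptides plus stable controls, 12 aa, fused to the C-terminus of a sfGFP-mCherry timer. Cells are FACS-sorted into 8 mCherry/sfGFP bins and deep-sequenced. PSI runs from 0 (unstable) to 1 (stable). Backgrounds are wild type, das1Δ and doa10Δ at 30 °C, and wild type, das1Δ, cdc34-1 and cdc53-1 at 37 °C; 2-3 technical replicates each.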

[3] = genetic background: cdc34-1, temperature: 37 C
[4] = genetic background: cdc53-1, temperature: 37 C
[5] = genetic background: das1 deletion, temperature: 30 C
[6] = genetic background: das1 deletion, temperature: 37 C
[7] = genetic background: doa10 deletion, temperature: 30 C
[8] = genetic background: wild type, temperature: 30 C
[9] = genetic background: wild type, temperature: 37 C
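Note: PSI is a weighted mean of sequencing reads over stability bins, variants kept only with over 10 reads, mCherry proximal and sfGFP distal, peptide attached via GGGS linker.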

Sequence	protein stability index [1]	protein stability index [2, 3]	protein stability index [2, 4]	protein stability index [2, 5]	protein stability index [2, 6]	protein stability index [2, 7]	protein stability index [2, 8]	protein stability index [2, 9]
FGPRLLRVMRLL	0.22 ± 0.04	0.562 ± 0.017	0.712 ± 0.018	0.639 ± 0.018	0.7306 ± 0.0047	0.128 ± 0.017	0.157 ± 0.044	0.207 ± 0.061
GFYQSGGLVVVV	–	0.6489 ± 0.0026	0.674 ± 0.014	0.501 ± 0.03	0.663 ± 0.0058	0.482 ± 0.017	0.515 ± 0.013	0.64 ± 0.028
CCSRFLMLRILV	0.146 ± 0.014	0.197 ± 0.062	0.208 ± 0.015	0.287 ± 0.041	0.438 ± 0.026	0.118 ± 0.0037	0.1 ± 0.0099	0.126 ± 0.0093
EFWWPFDRRGVI	0.748 ± 0.011	0.76 ± 0.037	0.807 ± 0.011	0.7244 ± 0.0059	0.83 ± 0.015	0.721 ± 0.029	0.7117 ± 0.0043	0.822 ± 0.012
GWRRRIWLCRLQ	0.505 ± 0.041	0.575 ± 0.018	0.741 ± 0.038	0.7 ± 0.013	0.7939 ± 0.004	0.41 ± 0.02	0.412 ± 0.036	0.662 ± 0.054
VLVCYFCRYISH	0.485 ± 0.0091	0.479 ± 0.059	0.579 ± 0.052	0.413 ± 0.046	0.573 ± 0.011	0.365 ± 0.0057	0.398 ± 0.021	0.5316 ± 0.0028
LWVTRVYCLLVC	0.0818 ± 0.0069	0.0444 ± 0.016	0.158 ± 0.03	0.168 ± 0.019	0.233 ± 0.019	0.0555 ± 0.02	0.0507 ± 0.015	0.0739 ± 0.015
GTMGWYSISRRL	0.519 ± 0.078	0.692 ± 0.052	0.754 ± 0.025	0.681 ± 0.013	0.746 ± 0.012	0.6585 ± 0.004	0.646 ± 0.022	0.729 ± 0.0091
TGPVFVSFRLLH	–	0.703 ± 0.065	0.752 ± 0.012	0.67 ± 0.066	0.737 ± 0.024	0.384 ± 0.015	0.405 ± 0.035	0.627 ± 0.0095
LGGCVSYINLLA	0.308 ± 0.026	0.592 ± 0.032	0.682 ± 0.018	0.594 ± 0.022	0.6997 ± 0.0013	0.197 ± 0.024	0.236 ± 0.015	0.3917 ± 0.0035
QNVKRIVRHMLT	0.374 ± 0.018	0.62 ± 0.056	0.691 ± 0.041	0.658 ± 0.008	0.723 ± 0.04	0.207 ± 0.018	0.251 ± 0.022	0.41 ± 0.027
VRGWLAYLRWII	0.274 ± 0.018	0.58 ± 0.03	0.638 ± 0.026	0.631 ± 0.027	0.724 ± 0.0083	0.195 ± 0.012	0.205 ± 0.018	0.303 ± 0.0047
SFFVCAGFWVLC	0.363 ± 0.024	0.419 ± 0.0091	0.511 ± 0.081	0.347 ± 0.025	0.539 ± 0.049	0.248 ± 0.011	0.289 ± 0.016	0.456 ± 0.0091
LRFMLLSFLVIL	0.234 ± 0.083	0.251 ± 0.021	0.207 ± 0.015	0.349 ± 0.034	0.429 ± 0.019	0.2402 ± 0.0023	0.176 ± 0.022	0.266 ± 0.01
WLFAILPSRLIA	–	0.284 ± 0.021	0.373 ± 0.0075	0.344 ± 0.035	0.488 ± 0.0068	0.0644 ± 0.0086	0.0673 ± 0.012	0.0638 ± 0.0027
FFCRWGSTVTLL	–	0.604 ± 0.034	0.696 ± 0.013	0.557 ± 0.014	0.647 ± 0.037	0.4076 ± 0.001	0.427 ± 0.01	0.559 ± 0.011
